The target in test [1] is FITC-labeled CCT5 C-terminal degron peptide (human). The test is described as follows: fluorescence polarisation; direct binding; protein titrated from 4 µM in two-fold steps against 20 nM FITC peptide; 20 mM Tris pH 7.5, 150 mM NaCl, 5% glycerol, 0.5 mM TCEP, 0.01% Triton; 45 min at room temperature.
The target in test [2] is FITC-labeled MAGEA3 C-terminal degron peptide. Described as above.

On to “DDB1–DCAF12–DDA1 complex (from UniProt Q5T6F0 1-453; Q5T6F0 1-453; Q9BW61 1-102)”, for which the Kd (commonly the equilibrium constant for the complex coming apart) in test [1] is 130 nM; in test [2] it was 60 nM.

Values taken from publication PMC11044963, “Probing the CRL4^DCAF12 interactions with MAGEA3 and CCT5 di-Glu C-terminal degrons” (PNAS Nexus, 2024).
